Experimental data taken from PMC11931385, “Structural and functional analysis of cancer-associated missense variants in the retinoblastoma protein pocket domain” (The Journal of Biological Chemistry, 2025).
Substitutions are numbered along the chain they refer to. Names and notes keep the numbering of the source. No end group written: not given here. TMR = tetramethyl rhodamine dye

T1: Rb^P S474I (human, UniProt P06400 380-788, S474I)
T1 construct: also called variant 11
T1 sequence (looked up): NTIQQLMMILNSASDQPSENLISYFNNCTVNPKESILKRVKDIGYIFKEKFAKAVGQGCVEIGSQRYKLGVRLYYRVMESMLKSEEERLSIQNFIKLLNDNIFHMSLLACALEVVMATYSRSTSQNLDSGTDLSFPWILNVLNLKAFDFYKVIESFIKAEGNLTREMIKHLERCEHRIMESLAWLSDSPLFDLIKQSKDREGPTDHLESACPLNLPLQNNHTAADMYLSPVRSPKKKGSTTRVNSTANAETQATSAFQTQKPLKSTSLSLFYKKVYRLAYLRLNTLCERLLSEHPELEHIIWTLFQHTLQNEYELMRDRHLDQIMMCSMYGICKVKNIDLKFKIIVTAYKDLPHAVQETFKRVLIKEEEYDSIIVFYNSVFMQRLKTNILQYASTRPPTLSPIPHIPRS

T2: Rb^P L572I (human, UniProt P06400 380-788, L572I)
T2 construct: also called variant 31
T2 sequence (looked up): T1 sequence (looked up) with I95S, L193I

T3: Rb^P D604G (human, UniProt P06400 380-788, D604G)
T3 construct: also called variant 36
T3 sequence (looked up): T1 sequence (looked up) with I95S, D225G

T4: Rb^P I703F (human, UniProt P06400 380-788, I703F)
T4 construct: also called variant 64
T4 sequence (looked up): T1 sequence (looked up) with I95S, I324F

T5: Rb^P R763T (human, UniProt P06400 380-788, R763T)
T5 construct: also called variant 75
T5 sequence (looked up): T1 sequence (looked up) with I95S, R384T

B1: TMR-E2F1^TD, peptide of the E2F1 transactivation domain (peptide)
peptide: {TMR}-GEGIRDLFDCDFGDLTPLD
notes: also called E2F^TD; source: synthetic peptide, bought: GenScript
B2: TMR-E7^LxCxE, LxCxE peptide of the E7 oncoprotein from HPV (peptide)
peptide: DLYCYEQLN
modifications: also: TMR label, position not given here
notes: source: synthetic peptide, bought: GenScript

Key:
Test in all cases: fluorescence polarisation; 37 °C, after the 25 °C reading ramped over 7 min to 37 °C and 2 min incubation; unlabeled Rb^P against 1.5 nM TMR-E2F1^TD or 7.5 nM TMR-E7^LxCxE; 25 mM Tris pH 8.0, 200 mM NaCl, 1 mM DTT, 0.1% Tween-20; apparent Kd
Details in all cases: both partners purified
[1] = target: T1, Rb^P S474I
[2] = target: T2, Rb^P L572I
[3] = target: T3, Rb^P D604G
[4] = target: T4, Rb^P I703F
[5] = target: T5, Rb^P R763T

Binder	Kd [1]	Kd [2]	Kd [3]	Kd [4]	Kd [5]
B1	775 nM	87 nM	50 nM	396 nM	59 nM
B2	18 nM	15 nM	26 nM	275 nM	35 nM
